Experimental data taken from the supplement of paper PMC9170038.

system: K4 kissing-loop RNA reporter; assay: apparent KD of K4 kissing-loop reporter; higher = weaker reporter binding; conditions: Eterna round: R107; input ligand: FMN 200 uM
Method: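 RNA-MaP round R107: designed RNA switches with theophylline, tryptophan, arginine or FMN aptamers are transcribed on-chip within common flanks. They are titrated with a labelled K4 kissing-loop RNA reporter in RNA-MaP buffer (100 mM Tris pH 7.5, 80 mM KCl, 4 mM MgCl2), without ligand or with the indicated ligand. Median apparent KD per design.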
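Further: bound reporter read as fluorescence of individual clusters on recovered sequencing chips by microscopy, with normalized cluster intensities fitted with a binding model.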

Sequence	apparent KD of K4 kissing-loop reporter [nM]
UGACGUUUGGGAAGGAGCGGAAUGUAAUACGGAAUGCGUGGAGAUGCAGUGAUGUUGCAGAUCCAGGUAGGUCGCCCAAGGGACG [Soanina]	99.5
UGUGUUGUUGUGAUGUUUGGUGUUGUAGGGCAGGAUAUCGUAGAGGCGAGAAGGGCUUUUGUGCGGUAUGAGUGAUGUUUGUAGG [svvsmullin]	119
UUUAUUAAGACGGCCGCCACUGAAUCAUAGUGAUGUUAUGAUAAAAUUUUAGAUAAUAAUAACAGCAGGACCGGGUCAAUUAUUA [JR_SSTryptoB_Sub015]	200
CCUAUCUCAUACGAUACCAGUCGUCGAGUGAUGUUCGAUUAAAUAAAUUUGCCAAAUAACGACCCUUGGCAGCGUAUGGGAUAGG [Ex Theophylline B K4 16]	273
CACGAUGAAUUCUCUAGGAGUGAUGUUUUUCGAGGACCGGUACGGCCGCCACUCGGACCACGAGCGUGGUAGCGGCGAAAAGACU [qpmullin]	782
AAACAUUGGUCGGAUACCAGCUUGAUCGGAAACGAUCUGCUGGAGUGAUGUUCCAAGUAAAGCCCUUGGCAGCCGACCGAUGAAA [MAT - Same State Theophlline B - Mod of Eli - D17]	133
UGAUACCAGACGGCCGCCACUCCCGUAAGUCAAAGACUUACGAAGAGUAUCGUCCAGUGAUGUUGGAGGACCGGGUCUGGUAUCU [FiskerMod 10 - Jieux - Exclusion - Tryptophan B]	344
UACUUAUAGUUAUUUCUACAUUUAUUUAGUCAGGAUAUCGAUUAGUCGAGAAGGGACAAUAUCAAGUGAUGUUUGAUAAUUCAAA [JR_ExcFMNA_Sub012]	89.9
GCCGUACGCACGGAUACCAGCACUCGGUGAGUGAUGUUCACGGUGUGGUAUUCACCGGGCUGCCCUUGGCAGCCGUGCGUACGGC	375
UGUCAUUGGUCGGCCGCCACUUCGUGUGGAGUGAUGUUUUGUAGGACGGAUCGAAAGAUCUGUCGAAGGACCGGGACCGAUGACU [FiskerMod 19 - Jieux - Same State - Tryptophan B]	96.8
AAUGUACAGGGAAGGAGCGUCGUCCAGUGAUGUUGGAGUUAAAUACCAGUGAUGUUGGUUAGGCAGGUAGGUCGCCCUAAAGUAU [#08 K4 Arginine B Exclusion]	96.1
GUGUGUGUCGGAGGAUAUGCGAUAGAUGUAGGAGAAUUAGUGAUGUUAGUUAUGGUAGAGAUAGGAGUAGAAGGUUGGUGUGUGU [RHig 3/7 B]	440
GCCCUUCAGGUCGGAGUGAUGUUCCAAUGGAAGGAUAUCCGGGCUCGGAGAAGGUCCAAUUGUGUCUUGUUAAGGUGCUCACUAC [theeternabot_sameState_KL_FMN_A_46]	251
GCCCACAUUAGUGAUACCAGUGGGCACUCACCAGUUCAGUGAUGUUGGACGCAGUGUGGUCACCCUUGGCAGCACCGAUGCCCUU [theeternabot_sameState_KL_Theo_B_32]	129
UGUGUUGUUUUGAUGUUUGUUGUAAGUUGGCAGGAUAUCGUAGAGGCGAGAAGGGCUUUUAUGCGUUAUGAGUGAUGUUUGUAGG [ggbgzmullin]	353
GACACUCGGUGAUAAUAACCGUUACGCGAUACCAGCGUAACAGUACGCCCUUGGCAGCGCAGUGAUGUUGCGUGCCGAGUGUGAA [Theo A Ex Mod of Esbiceve]	180

Sequence	apparent KD of K4 kissing-loop reporter [nM]
GUAGCUUGGCUAGGAUAUUAGCGUAGGAGUGAUGUUCCGACUAGCGAAAGCUAGUCUCACGCUAGUUAAGAAGGAGCCAAGCUAC	263
AGUGAUGUGGGAAGGAGCGCUACAUGACUUCAGUGAUGUUGAAGUGAUGAUUUAGUGAUGUAGCAGGUAGGUCGCCUAGAUGUUA [KL-XARG-B8]	98.3
AAGUGAUGUUGUAGUGAUGUUGUGAUGUUGCAGGAUAUAUAGUGAUGUAGAAGGGUAUGUACUGAUUUUUUUUUUGAGUGAUGUU [awaqmullin]	99.2
UUAUAUAAUUAGUCUUUUUUAACAUUAAGUCAGGAUAUCGUAUAUUCGAGAAGGGACACAUGCUAGUGAUGUUAGCUAUUUCUUU [JR_ExcFMNA_Sub017]	32.4
GGUUGCAGCCCUGCAUCGUGGGUUUAGAGUAAGGAUAUUCGCCAAGGAAGAAGGUACUCUGCAUUGAGUGAUGUUCAAUAAGAUG [theeternabot_sameState_KL_FMN_A_30]	109
CCUAUCUCAUACGAUACCAGUCAACGAUAUUUUAUCGAUGCCAUCACCGAGUGAUGUUCGGACCCUUGGCAGCGUAUGGGAUAGG [Ex Theophylline B K4 4]	248
AGUGAUGUUGAGUUAUCUUAGUGAAGUGAUCGAGGACCGGUACGGCCGCCACUCGAGUGAUGAGUGAGUGAUGUUUGUUUAGUGA [zzymullin]	546
GGGAGUAGUGCGGCCGCCACUGUGAAAGAAGAAGAAUAUAGUGAUGUUAUAUAGGAAUAAAAGAAUAGGACCGGGCAUUAGAUUU [SSTRyptB.R]	334
GUUCCCUACAAGGAUACCAGAACGUGUAGUCCGAGCGCUAGUGAUGUUGGCGUCUACCUCUUCCCUUGGCAGCCUGCAAAUCAGU [theeternabot_sameState_KL_Theo_B_48]	269
AGCCUAGGAGUCAUUUCCUGCCCGUACGAUACCAGCAUUACCAGUUGCCCUUGGCAGCGUUAUAAGGCCAGUGAUGUUGGCCACU [theeternabot_sameState_KL_Theo_A_22]	168
UGAUAAAGCAGUGAUGUUGCAAGAAAUGAUACCAGUUAAGAAAAGAACCCUUGGCAGCAUAAAGUGCGCUCUAAUGAGUGUGCUU [theophylline a same state]	141
GGUAUCUAUACAGAUACCAGUCGUACAGCACCAUUACAGGUUAGUGAUGUUAACCUGUACGACCCUUGGCAGCUGUAUAAUAAUA [Theo B Ex t2a]	105
ACGUAGUUCUAGGAUACCAGCCAAAUAGCCAGGACGAGAGUCCUGGCUGCCAGUGAUGUUGGCCCUUGGCAGCCUAGAUCUUCUU [zmodel 1]	161
UGAUACCAGACGGCCGCCACUUCCGUAAGUCAAAGACUUACCAAGAGAAUCGUCCAGUGAUGUUGGAGGACCGGGUCUGGUAUCU [FiskerMod 7 - Jieux - Exclusion - Tryptophan B]	931
GCAAAACGCAGUGAUGUUGCGAUCUCGGAAGGAGCGCGUGAAAACGCAGGUAGGUCGCCGAGUCAGUGAGUAUCUCGCUGUUUGC [Arginine A K4 19]	383
UGAAAUCGAAUUCCGCGUGCAACGCCAGUAAAGGAUAUCAUCACACUGAGAAGGUUACGAAGCGGAGUGAUGUUCCGCUCUAUCC [theeternabot_sameState_KL_FMN_A_50]	105

same assay, conditions: Eterna round: R107; input ligand: arginine 13.2 mM

Sequence	apparent KD of K4 kissing-loop reporter [nM]
UGACGUUUGGGAAGGAGCGGAAUGUAAUACGGAAUGCGUGGAGAUGCAGUGAUGUUGCAGAUCCAGGUAGGUCGCCCAAGGGACG [Soanina]	84.9
UGUGUUGUUGUGAUGUUUGGUGUUGUAGGGCAGGAUAUCGUAGAGGCGAGAAGGGCUUUUGUGCGGUAUGAGUGAUGUUUGUAGG [svvsmullin]	89.3
UUUAUUAAGACGGCCGCCACUGAAUCAUAGUGAUGUUAUGAUAAAAUUUUAGAUAAUAAUAACAGCAGGACCGGGUCAAUUAUUA [JR_SSTryptoB_Sub015]	173
CCUAUCUCAUACGAUACCAGUCGUCGAGUGAUGUUCGAUUAAAUAAAUUUGCCAAAUAACGACCCUUGGCAGCGUAUGGGAUAGG [Ex Theophylline B K4 16]	295
CACGAUGAAUUCUCUAGGAGUGAUGUUUUUCGAGGACCGGUACGGCCGCCACUCGGACCACGAGCGUGGUAGCGGCGAAAAGACU [qpmullin]	464
AAACAUUGGUCGGAUACCAGCUUGAUCGGAAACGAUCUGCUGGAGUGAUGUUCCAAGUAAAGCCCUUGGCAGCCGACCGAUGAAA [MAT - Same State Theophlline B - Mod of Eli - D17]	62.8
UGAUACCAGACGGCCGCCACUCCCGUAAGUCAAAGACUUACGAAGAGUAUCGUCCAGUGAUGUUGGAGGACCGGGUCUGGUAUCU [FiskerMod 10 - Jieux - Exclusion - Tryptophan B]	298
UACUUAUAGUUAUUUCUACAUUUAUUUAGUCAGGAUAUCGAUUAGUCGAGAAGGGACAAUAUCAAGUGAUGUUUGAUAAUUCAAA [JR_ExcFMNA_Sub012]	161
